Experimental findings from paper PMC5459902 (Scientific Reports, 2017) are described below.

The target in data set [1] is T1, PnFPOX (Parastagonospora nodorum, UniProt Q0UIL6).
T1 construct: gene SNOG_08398; His-tagged, pET22b (NdeI/XhoI), E. coli BL21(DE3); HisTrap purified; 49 kDa on SDS-PAGE
T1 sequence (Q0UIL6 1-437): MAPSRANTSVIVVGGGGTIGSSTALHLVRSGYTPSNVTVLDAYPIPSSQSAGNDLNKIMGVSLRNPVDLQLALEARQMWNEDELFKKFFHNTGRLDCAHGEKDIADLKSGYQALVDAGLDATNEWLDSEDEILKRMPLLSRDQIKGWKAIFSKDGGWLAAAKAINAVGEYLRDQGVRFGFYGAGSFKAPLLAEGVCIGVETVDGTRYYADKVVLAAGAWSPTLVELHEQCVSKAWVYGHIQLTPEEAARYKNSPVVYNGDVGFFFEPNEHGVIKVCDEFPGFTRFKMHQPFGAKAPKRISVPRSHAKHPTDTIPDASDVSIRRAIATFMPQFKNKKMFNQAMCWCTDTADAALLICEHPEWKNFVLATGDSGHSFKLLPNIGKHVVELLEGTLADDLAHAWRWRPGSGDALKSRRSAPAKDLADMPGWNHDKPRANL
Description: X-ray crystal structure, […] Å. The conditions noted are these: covalent; bond to Cys343. Type of data set: binding.

The subject of data set [2] is CC(C)[C@H](NC[C@@]1(O)OC[C@@H](O)[C@@H](O)[C@@H]1O)C(=O)O. Description: H2O2 formation, peroxidase-coupled 4-AA/TOOS spectrophotometric assay. In kind it is biochemical, Parastagonospora nodorum. As to conditions: oxidase activity, O2 as electron acceptor, 10 mM potassium phosphate pH 7.0, 298 K, 25.0 °C.
Substrate in data set [3]: CC(C)[C@H](NC[C@@]1(O)OC[C@@H](O)[C@@H](O)[C@@H]1O)C(=O)O
The description is as above. In kind it is biochemical, Parastagonospora nodorum. As to conditions: oxidase activity, O2 as electron acceptor, 10 mM potassium phosphate pH 7.0, 298 K, 25.0 °C. The source holds these as a separate data set.

Consider `Cc1cc2nc3c(=O)[nH]c(=O)nc-3n(C[C@H](O)[C@H](O)[C@H](O)COP(=O)(O)OP(=O)(O)OC[C@H]3O[C@@H](n4cnc5c(N)ncnc54)[C@H](O)[C@@H]3O)c2cc1C` [FAD], for which, in data set [1], the “X-ray crystal structure, 1.83 Å” value is “A covalent bond is formed between FAD and Cys343 of PnFPOX”.

As a reminder, the Km is the substrate concentration at which the rate is half of its maximum. By Vmax is commonly meant the rate approached at saturating substrate. “PnFPOX (Parastagonospora nodorum SN15; D54A/N56A)”: in data set [2], the Km came to 14 ± 1.2 µM, the Vmax was found to be 0.078 µmol/min/mg and the Vmax/Km amounted to 5730 µL/min/mg.

As to “PnFPOX (Parastagonospora nodorum SN15; D54N/N56A)”, the Km in data set [2] worked out at 46 ± 3.7 µM.

B1: PnFPOX (Parastagonospora nodorum SN15) (protein)
chain: MAPSRANTSVIVVGGGGTIGSSTALHLVRSGYTPSNVTVLDAYPIPSSQSAGNDLNKIMGVSLRNPVDLQLALEARQMWNEDELFKKFFHNTGRLDCAHGEKDIADLKSGYQALVDAGLDATNEWLDSEDEILKRMPLLSRDQIKGWKAIFSKDGGWLAAAKAINAVGEYLRDQGVRFGFYGAGSFKAPLLAEGVCIGVETVDGTRYYADKVVLAAGAWSPTLVELHEQCVSKAWVYGHIQLTPEEAARYKNSPVVYNGDVGFFFEPNEHGVIKVCDEFPGFTRFKMHQPFGAKAPKRISVPRSHAKHPTDTIPDASDVSIRRAIATFMPQFKNKKMFNQAMCWCTDTADAALLICEHPEWKNFVLATGDSGHSFKLLPNIGKHVVELLEGTLADDLAHAWRWRPGSGDALKSRRSAPAKDLADMPGWNHDKPRANL
notes: His-tagged, pET22b (NdeI/XhoI), E. coli BL21(DE3); HisTrap purified; 49 kDa on SDS-PAGE
On to B1, for which, in data set [3], the Km was 359 ± 6.2 µM, the Vmax worked out at 29.9 µmol/min/mg and the Vmax/Km stood at 83300 µL/min/mg.
